# Measurements from the supplement of paper PMC10567573.
# B1: IQUB (parent)
# chain: EADYEDDSKIAFLMQLQDIQYLTE
# Variants of: B1
# Experiment: protein stability index of a GFP-peptide fusion (GPS, HEK-293T) (PSI 1-6); higher = more stable
# Conditions: c terminus: a fixed tail appended
# 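Note: lentivirally expressed fusions sorted by FACS into six bins by GFP to DsRed ratio, PSI derived from sequencing read proportions per bin multiplied by bin number.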
row,Variant,protein stability index
1,EADYEDDSKIAFRMQLQDIQYLTE,3.88
2,EADYEDDSKIAFVMQLQDIQYLTE,3.12
3,EADYEDDSKIAFNMQLQDIQYLTE,4.55
4,EADYEDDSKIAFGMQLQDIQYLTE,4.29
5,EADYEDDSKIAFIMQLQDIQYLTE,2.77
6,EADYEDDSKIAFSMQLQDIQYLTE,4.41
7,EADYEDDSKIAFCMQLQDIQYLTE,3.5
8,EADYEDDVKIAFLMQLQDIQYLTE,2.6
9,EADYEDDYKIAFLMQLQDIQYLTE,2.34
10,EADYEDDNKIAFLMQLQDIQYLTE,3.53
11,EADYEDDGKIAFLMQLQDIQYLTE,3.46
12,EADYEDDTKIAFLMQLQDIQYLTE,3.07
13,EADYEDDCKIAFLMQLQDIQYLTE,2.29
14,EADYEDDIKIAFLMQLQDIQYLTE,2.15
15,EADYEDDEKIAFLMQLQDIQYLTE,3.21
16,EADYEDDSKIAFLMQHQDIQYLTE,4.43
17,EADYEDDSKIAFLMQYQDIQYLTE,3.64
18,EADYEDDSKIAFLMQRQDIQYLTE,3.99
19,EADYEDDSKIAFLMQNQDIQYLTE,4.33
20,EADYEDDSKIAFLMQFQDIQYLTE,3.42
21,EADYEDDSKIAFLMQIQDIQYLTE,2.95
22,EADYEDDSKIAFLMQGQDIQYLTE,4.76
23,EADYEDDSKIAFLMQWQDIQYLTE,3.25
24,EADYEDDSKIAFLMQLQDISYLTE,3.61

row,Variant,protein stability index
1,EADYEDDSKIAFLMQLQDITYLTE,3.05
2,EADYEDDSKIAFLMQLQDIMYLTE,2.48
3,EADYEDDSKIAFLMQLQDIDYLTE,3.86
4,EADYEDRSKIAFLMQLQDIQYLTE,2.87
5,EADYEDWSKIAFLMQLQDIQYLTE,2.33
6,EADYEDTSKIAFLMQLQDIQYLTE,2.19
7,EADYEDGSKIAFLMQLQDIQYLTE,2.78
8,EADYEDHSKIAFLMQLQDIQYLTE,2.98
9,EADYEDKSKIAFLMQLQDIQYLTE,2.38
10,EADYEDVSKIAFLMQLQDIQYLTE,1.96
11,EADYEDLSKIAFLMQLQDIQYLTE,1.89
12,EADYEDCSKIAFLMQLQDIQYLTE,1.88
13,EADYEDDSKIAFLMQLQDQQYLTE,4.11
14,EADYEDDSKIAFLMQLQDNQYLTE,3.98
15,EADYEDDSKIAFLMQLQDSQYLTE,4.35
16,EADYEDDSKIAFLMQLQDRQYLTE,3.78
17,EADYEDDSKIAFLMQLQDKQYLTE,4.86
18,EADYEDDSKIAFLMQLQDDQYLTE,4.94
19,EADVEDDSKIAFLMQLQDIQYLTE,3.18
20,EADAEDDSKIAFLMQLQDIQYLTE,3.76
21,EADFEDDSKIAFLMQLQDIQYLTE,3.16
22,EADDEDDSKIAFLMQLQDIQYLTE,4.24
23,EADLEDDSKIAFLMQLQDIQYLTE,3.51
24,EADEEDDSKIAFLMQLQDIQYLTE,4.09

row,Variant,protein stability index
1,EADPEDDSKIAFLMQLQDIQYLTE,4.15
2,EADMEDDSKIAFLMQLQDIQYLTE,3.07
3,EDDYEDDSKIAFLMQLQDIQYLTE,3.53
4,EFDYEDDSKIAFLMQLQDIQYLTE,2.58
5,ELDYEDDSKIAFLMQLQDIQYLTE,3.46
6,EPDYEDDSKIAFLMQLQDIQYLTE,3.73
7,EYDYEDDSKIAFLMQLQDIQYLTE,2.08
8,EQDYEDDSKIAFLMQLQDIQYLTE,2.36
9,EADYEDDSKIAFLMQLQDIQYLDE,4.09
10,EADYEDDSKIAFLMQLQDIQYLEE,4.16
11,EADYEDDSKIAFLMQLQDIQYLME,1.92
12,EADYEDDSKIAFLMQLQDIQYLLE,2.12
13,EADYEDDSKIAFLMQLQDIQYLYE,2.21
14,EADYEDDSKIAFLMQLQDIQYLAE,2.26
15,EADYEDDSKIAFLMQLQDIQYLGE,3.19
16,EADYEDDSKIAFLMQLQDIQYLHE,3.29
17,EADYEDDSKIAFLMQLQDIQYLWE,1.97
18,EADYEDDSKIAFLMQLQDIQYLNE,3.89
19,YADYEDDSKIAFLMQLQDIQYLTE,2.23
20,QADYEDDSKIAFLMQLQDIQYLTE,2.76
21,VADYEDDSKIAFLMQLQDIQYLTE,1.74
22,RADYEDDSKIAFLMQLQDIQYLTE,2.44
23,HADYEDDSKIAFLMQLQDIQYLTE,3.29
24,LADYEDDSKIAFLMQLQDIQYLTE,2.75

row,Variant,protein stability index
1,AADYEDDSKIAFLMQLQDIQYLTE,2.95
2,EADYEDDSKIAFLMQLQDIQYLTW,2.45
3,EADYEDDSKIAFLMQLQDIQYLTV,1.81
4,EADYEDDSKIAFLMQLQDIQYLTH,2.48
5,EADYEDDSKIAFLMQLQDIQYLTL,1.56
6,EADYEDDSKIAFLMQLQDIQYLTG,2.89
7,EADYEDDSKIAFLMQLQDIQYLTN,2.61
8,EADYEDDSKIAFLMQLQDIQYLTC,2.33
9,EADYEDDSKIAFLMQLQDIQYLTS,2.71
10,EADYEDDSKIAFLMQLQDIQYLTP,3.29
11,EADYEDDSKIAFLMGLQDIQYLTE,3.76
12,EADYEDDSKIAFLMTLQDIQYLTE,2.19
13,EADYEDDSKIAFLMDLQDIQYLTE,3.1
14,EADYEDDSKIAFLMWLQDIQYLTE,1.78
15,EADYEDDSKIAFLMRLQDIQYLTE,2.89
16,EADYEDDSKIAFLMALQDIQYLTE,2.61
17,EADYEDDSKIAFLMCLQDIQYLTE,2.09
18,EADYEDDSKITFLMQLQDIQYLTE,3.14
19,EADYEDDSKISFLMQLQDIQYLTE,2.94
20,EADYEDDSKIVFLMQLQDIQYLTE,2.24
21,EADYEDDSKIGFLMQLQDIQYLTE,3.41
22,EADYEDDSKIKFLMQLQDIQYLTE,3.4
23,EADYEDDSKILFLMQLQDIQYLTE,2.12
24,EADYEDDSKIRFLMQLQDIQYLTE,2.83

row,Variant,protein stability index
1,EADYEDDSKIWFLMQLQDIQYLTE,2.78
2,EADYEHDSKIAFLMQLQDIQYLTE,2.4
3,EADYEIDSKIAFLMQLQDIQYLTE,2.21
4,EADYEYDSKIAFLMQLQDIQYLTE,1.86
5,EADYEEDSKIAFLMQLQDIQYLTE,2.88
6,EADYEPDSKIAFLMQLQDIQYLTE,2.34
7,EADYEWDSKIAFLMQLQDIQYLTE,1.83
8,EADYEDDSKSAFLMQLQDIQYLTE,3.91
9,EADYEDDSKQAFLMQLQDIQYLTE,4.12
10,EADYEDDSKAAFLMQLQDIQYLTE,4
11,EADYEDDSKDAFLMQLQDIQYLTE,4.35
12,EADYEDDSKTAFLMQLQDIQYLTE,3.5
13,EADYEDDSKEAFLMQLQDIQYLTE,4.43
14,EADYEDDSKMAFLMQLQDIQYLTE,3.2
15,EADYEDDSKYAFLMQLQDIQYLTE,2.76
16,EADYEDDSKIAFLMQLQDIQYFTE,2.91
17,EADYEDDSKIAFLMQLQDIQYRTE,3.94
18,EADYEDDSKIAFLMQLQDIQYYTE,3.21
19,EADYEDDSKIAFLMQLQDIQYQTE,3.83
20,EADYEDDSKIAFLMQLQRIQYLTE,2.32
21,EADYEDDSKIAFLMQLQHIQYLTE,2.58
22,EADYEDDSKIAFLMQLQMIQYLTE,1.83
23,EADYEDDSKIAFLMQLQAIQYLTE,1.74
24,EADYEDDSKIAFLMQLQEIQYLTE,2.86

row,Variant,protein stability index
1,EADYEDDSKIAFLMQLQCIQYLTE,1.84
2,EADYEDDSKIAFLMQLQGIQYLTE,2.92
3,EADYEDDSKIAFLMQLQPIQYLTE,2.83
4,EADYEDDSKIAFLMQLQVIQYLTE,2.22
5,EADYEDDSKIAFLMQLQWIQYLTE,2.2
6,EADYEDDSKIAFLMQLQFIQYLTE,2.33
7,EADYEDDSKIAFLMQLQDIQFLTE,2.78
8,EADYEDDSKIAFLMQLQDIQVLTE,3.51
9,EADYEDDSKIAFLMQLQDIQPLTE,3.77
10,EADYEDDSKIAFLMQLQDIQTLTE,4.06
11,EADYEDDSKIAFLMQLQDIQALTE,3.81
12,EADYEDDSKIAFLMQLQDIQSLTE,3.52
13,EADYEDDSKIAFLMQLQDIQWLTE,2.95
14,EADYEDDSKIAFLMQLQDIQDLTE,4.45
15,EADYEDDSKIAFLMQLQDIQILTE,3.19
16,EADYEDDSKIAFLMQLQDIQKLTE,3.51
17,EADYKDDSKIAFLMQLQDIQYLTE,2.6
18,EADYPDDSKIAFLMQLQDIQYLTE,2.79
19,EADYNDDSKIAFLMQLQDIQYLTE,3.12
20,EADYWDDSKIAFLMQLQDIQYLTE,2.29
21,EADYIDDSKIAFLMQLQDIQYLTE,2.29
22,EADYRDDSKIAFLMQLQDIQYLTE,2.63
23,EADYTDDSKIAFLMQLQDIQYLTE,3.5
24,EADYADDSKIAFLMQLQDIQYLTE,2.22

row,Variant,protein stability index
1,EADYLDDSKIAFLMQLQDIQYLTE,2.43
2,EADYHDDSKIAFLMQLQDIQYLTE,2.62
3,EADYEDDSKIAYLMQLQDIQYLTE,3.73
4,EADYEDDSKIAGLMQLQDIQYLTE,4.66
5,EADYEDDSKIATLMQLQDIQYLTE,4.94
6,EADYEDDSKIAHLMQLQDIQYLTE,4.62
7,EADYEDDSKIASLMQLQDIQYLTE,4.61
8,EADYEDDSKIAQLMQLQDIQYLTE,4.78
9,EADYEDDSKIAMLMQLQDIQYLTE,4.05
10,EADYEDDSKIALLMQLQDIQYLTE,2.96
11,EADYEDDSKIACLMQLQDIQYLTE,4.29
12,EADYEDDSKIANLMQLQDIQYLTE,4.33
13,EACYEDDSKIAFLMQLQDIQYLTE,1.69
14,EAWYEDDSKIAFLMQLQDIQYLTE,2.93
15,EAIYEDDSKIAFLMQLQDIQYLTE,1.97
16,EASYEDDSKIAFLMQLQDIQYLTE,2.51
17,EADYEDDSDIAFLMQLQDIQYLTE,3.63
18,EADYEDDSHIAFLMQLQDIQYLTE,3.36
19,EADYEDDSPIAFLMQLQDIQYLTE,2.9
20,EADYEDDSWIAFLMQLQDIQYLTE,2.61
21,EADYEDDSQIAFLMQLQDIQYLTE,3.21
22,EADYEDDSEIAFLMQLQDIQYLTE,3.39
23,EADYEDDSYIAFLMQLQDIQYLTE,2.42
24,EADYEDDSTIAFLMQLQDIQYLTE,2.64

row,Variant,protein stability index
1,EADYEDDSAIAFLMQLQDIQYLTE,2.48
2,EADYEDDSKIAFLMQLEDIQYLTE,3.43
3,EADYEDDSKIAFLMQLTDIQYLTE,2.96
4,EADYEDDSKIAFLMQLYDIQYLTE,2.51
5,EADYEDDSKIAFLMQLKDIQYLTE,2.87
6,EADYEDDSKIAFLMQLHDIQYLTE,3.13
7,EADYEDDSKIAFLMQLDDIQYLTE,3.73
8,EADYEDDSKIAFLMQLRDIQYLTE,2.57
9,EADYEDDSKIAFLMQLCDIQYLTE,2.25
10,EADYEDDSKIAFLMQLSDIQYLTE,2.69
11,EADYEDDSKIAFLMQLADIQYLTE,2.5
12,EADYEDDSKIAFLMQLFDIQYLTE,2.68
13,EADYEDDSKIAFLQQLQDIQYLTE,4.23
14,EADYEDDSKIAFLYQLQDIQYLTE,2.92
15,EADYEDDSKIAFLIQLQDIQYLTE,2.6
16,EADYEDDSKIAFLWQLQDIQYLTE,2.42
17,EADYEDDSKIAFLNQLQDIQYLTE,4.26
18,EADYEDDSKIAFLLQLQDIQYLTE,2.32
19,EADYEDDSKIAFLAQLQDIQYLTE,3.4
20,EADYEDDSKIAFLRQLQDIQYLTE,3.75
